# Article PMC3072150 (Biochemistry, 2009)
# Tests used:
# [1] = target: DnaC protein (hexamer assembled on DnaB) in the binary DnaB–DnaC complex (Escherichia coli, UniProt P0AEF0); experiment: fluorescence titration; assay type: binding
# [2] = target: DnaB helicase;DnaC protein (Escherichia coli;Escherichia coli, UniProt P0ACB0;P0AEF0 1-471;1-245, |); experiment: fluorescence titration and sedimentation velocity of cofactor
# [3] = target: DnaB helicase (Escherichia coli, UniProt P0ACB0 1-471); experiment: fluorescence titration
# DnaB helicase, sequence (P0ACB0 whole entry): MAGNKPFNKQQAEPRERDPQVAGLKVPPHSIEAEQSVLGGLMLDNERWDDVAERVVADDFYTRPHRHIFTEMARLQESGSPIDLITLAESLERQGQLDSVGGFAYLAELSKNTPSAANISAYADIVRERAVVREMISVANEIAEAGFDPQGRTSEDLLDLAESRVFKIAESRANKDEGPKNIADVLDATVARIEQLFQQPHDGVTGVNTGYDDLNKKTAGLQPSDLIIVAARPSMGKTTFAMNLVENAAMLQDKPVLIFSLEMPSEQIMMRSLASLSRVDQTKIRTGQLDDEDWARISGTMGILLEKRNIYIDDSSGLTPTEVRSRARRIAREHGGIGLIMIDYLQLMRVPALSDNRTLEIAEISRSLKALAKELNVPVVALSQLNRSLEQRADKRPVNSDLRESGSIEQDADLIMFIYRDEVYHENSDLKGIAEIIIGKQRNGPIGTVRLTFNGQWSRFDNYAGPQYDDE
# DnaC protein (hexamer assembled on DnaB) in the binary DnaB–DnaC complex, sequence (P0AEF0 whole entry): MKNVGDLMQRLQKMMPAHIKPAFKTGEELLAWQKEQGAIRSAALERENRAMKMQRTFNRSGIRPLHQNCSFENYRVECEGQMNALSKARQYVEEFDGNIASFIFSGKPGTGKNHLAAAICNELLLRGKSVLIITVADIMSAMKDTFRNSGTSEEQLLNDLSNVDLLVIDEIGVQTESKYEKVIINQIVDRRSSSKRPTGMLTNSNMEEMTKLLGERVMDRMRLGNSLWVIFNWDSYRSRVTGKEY
# DnaC protein (hexamer assembled on DnaB) in the binary DnaB–DnaC complex, sequence (P0ACB0 2-471 partner): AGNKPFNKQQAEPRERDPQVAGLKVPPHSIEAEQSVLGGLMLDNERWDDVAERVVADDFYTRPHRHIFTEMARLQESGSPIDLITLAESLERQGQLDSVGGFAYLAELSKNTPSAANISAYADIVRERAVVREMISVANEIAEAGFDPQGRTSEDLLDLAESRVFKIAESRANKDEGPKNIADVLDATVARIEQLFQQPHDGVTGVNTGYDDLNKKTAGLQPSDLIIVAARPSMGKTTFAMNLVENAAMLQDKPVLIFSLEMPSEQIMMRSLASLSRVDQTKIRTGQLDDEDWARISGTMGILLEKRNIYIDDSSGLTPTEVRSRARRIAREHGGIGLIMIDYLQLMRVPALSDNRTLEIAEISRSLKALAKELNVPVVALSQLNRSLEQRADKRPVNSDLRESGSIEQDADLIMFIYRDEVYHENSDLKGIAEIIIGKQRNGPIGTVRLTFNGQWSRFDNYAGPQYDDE
# DnaB helicase;DnaC protein, sequence (P0ACB0 whole entry, chain 1 of 2): as the sequence (P0ACB0 whole entry) above
# DnaB helicase;DnaC protein, sequence (P0AEF0 whole entry, chain 2 of 2): as the sequence (P0AEF0 whole entry) above
molecule,measurement,setting,value
"CNc1ccccc1C(=O)O[C@H]1[C@@H](O)[C@H](n2cnc3c(N)ncnc32)O[C@@H]1CO[P@@](=O)(O)O[P@](=O)(O)OP(=O)(O)O [MANT-ATP, 3′-O-(N-methylanthraniloyl)adenosine 5′-triphosphate]",Kd,[1],4.17 µM
AAAAAAAAAAAAAAAAAAAA (ssDNA) [dA(pdA)19 (ssDNA 20-mer)],binding result,[2],binds
same,binding result,[3],binds
